Reference: the DeepSol protein solubility set

assay: soluble on expression in E. coli; label from the status in PepcDB or PDB records

Sequence	soluble on expression in E. coli
MTKTAFLFAGQGAQYLGMGRDFYDQYPIVKETIDRASQVLGYDLRYLIDTEEDKLNQTRYTQPAILATSVAIYRLLQEKGYQPDMVAGLSLGEYSALVASGALDFEDAVALVAKRGAYMEEAAPADSGKMVAVLNTPVEVIEEACQKASELGVVTPANYNTPAQIVIAGEVVAVDRAVELLQEAGAKRLIPLKVSGPFHTSLLEPASQKLAETLAQVSFSDFTCPLVGNTEAAVMQKEDIAQLLTRQVKEPVRFYESIGVMQEAGISNFIEIGPGKVLSGFVKKIDQTAHLAHVEDQASLVALLEKL	soluble
MTLLSPGIELKETTVQSTVVNNSTGTAALAGKFQWGPAFQIKQVTNEVDLVNTFGQPTAETADYFMSAMNFLQYGNDLRVVRAVDRDTAKNSSPIAGNIEYTISTPGSNYAVGDKITVKYVSDDIETEGKITEVDADGKIKKINIPTAKIIAKAKEVGEYPTLGSNWTAEISSSSSGLAAVITLGKIITDSGILLAEIENAEAAMTAVDFQANLKKYGIPGVVALYPGELGDKIEIEIVSKADYAKGASALLPIYPGGGTRASTAKAVFGYGPQTDSQYAIIVRRNDAIVQSVVLSTKRGGKDIYDSNIYIDDFFAKGGSEYIFATAQNWPEGFSGILTLSGGLSSNAEVTAGDLMEAWDFFADRESVDVQLFIAGSCAGESLETASTVQKHVVSIGDVRQDCLVLCSPPRETVVGIPVTRAVDNLVNWRTAAGSYTDNNFNISSTYAAIDGNYKYQYDKYNDVNRWVPLAADIAGLCARTDNVSQTWMSPAGYNRGQILNVIKLAIETP	soluble
MTLMNTENEPTGMLTIRVSAMPKDANSAYDIFGGWVMAQMDMAAGIRSAERARGRTVTAAVREMAFARPVKIGDTLCVYTDITRVGRTSITLRVEAWAKRYLSDKRDLVTHAEFIMVALDADGKPTPAPQEDLEHHHHHH	not soluble
MTLNIYTEEWAPISFSVDGKPDGLAVQVVQEIQKRIDNQDPIKVVPWARGWKIITEQPNTVLFTMTRTAERERMFSLIGPVAVGTTNFYALKNSNLKINLEHHHHHH	not soluble
MTLQEQIMKALHVQPVIDPKAEIRKRVDFLKDYVKKTGAKGFVLGISGGQDSTLAGRLAQLAVEEIRNEGGNATFIAVRLPYKVQKDEDDAQLALQFIQADQSVAFDIASTVDAFSNQYENLLDESLTDFNKGNVKARIRMVTQYAIGGQKGLLVIGTDHAAEAVTGFFTKFGDGGADLLPLTGLTKRQGRALLQELGADERLYLKMPTADLLDEKPGQADETELGITYDQLDDYLEGKTVPADVAEKIEKRYTVSEHKRQVPASMFDDWWKLAAALEHHHHHH	soluble
MTLVASSENTGLCPMTFDDSSGQTSHMLFQRLQYQRKTGRFCDVEIVVQNKSFAAHRNILAAHSPYFDAIFKYCKITKEQLTINSKSPQVFELFLNYMYSGTVIIDRSSVSELLRFANNFLIVKLKVYCAAYLDRYLDAANCLSIRTLAQRYNLPGLVKSATDYFDSNLNRCLLESRDIIGYTYTQLTRLIGDPKYVDCITSDTYLKLIVRWVGEEVSKREEIFRLLLESCEFREVSADTLEFLLDYSPLLSKSQKSRFLLLHVMETNNMLMEKYSTQLSSLRQKIVDLPILHDPSQFEDDIYDSSDSEEDPDDYIADGHPTSAQVVEYGNDVNNRLKMKIAFQPGNEKKRLKRPKGMKKHHLHPIPPINATENESIPWIDEDEIDGVYATCSLEGCHTYGPVDNLDPDDCEDEEDQPDENGPSTCIFCGLRTANEELLEKHKARHHNRNTYYMCHLCEFETNWSKQFYLHCAEHWTEIPYRCETCPFTSNEIQEFLTHRLQHTDERFFKCGECAWKGRTRSQLFAHERMHSVLDDRSLHCEECGRGFQQHSTLDHHVASHNDPRPYICEDCGFATKTADHLSLHRRQHTGDNFSCHIAGCDYSSTKKSQLAAHLRTHMAVRAHLCKICGRGFIEKSHLVRHERIHLEEKPFKCDQCEYASSRRDKLKEHIIKHHNSEVLTFQKTQRRKYKRQRMLAAASNIVNNPDALFRPITSDDAVSNWQATNDFSTYSPNPNDYGGPSTYGNPSSPQRAFSVVHPSQHQHHAQSPGCMSMMNVPLRDNHHQMQRQDSPGDSVGGGQGGGGGGGPEGSDNTHGVLMTPNLVMRSPHNRSAVQPQFNNLSTNSDPQQQQQQQQLRPFSLPTYGQMDLAQAAQLQQLQQQLQAAGLPPTGTPNNQDNSNNAWNPWNVQ	not soluble
MTMTETMNVDLLLEMESVHVKPFTEHDKVILRSYEAVVDGIASLIGPFCEIVLHSLEDLNTSAIKIANGENTGRQVGSPITDMALKMLRDIEGSERNFSRSYFTRAKGGVLMKSITVAIRNGENRVIGLLCINVNLDAPFSQVLKSFMPTQEAQEAASSVNFASDVEELVDQTVERTIEEINGDKSVSNNTKNRQIVMALFDKGIFDIKDAINRVADRLNISKHTVYLYIRQRKTEDDEK	not soluble
MTMVKTLVALATERMLLKTSGPTFLRGIEFMYAAGLAPDRLSVMMTSSHKYVLQFHSKCDIRPFAANYPNFGRVLRGIVHVREWRIKSIEFVNVAFYMRDVDNLERAIEKLGVELVLLRNCTYPGVQRGDEAVKFLSALNRKKQAVVCEYGDDRLKHRIGRRSSGNRTRRASRNGQEIVNPAIAPGAAAAAQPALEAAPAAPAAGAAAPEANAPQAAPPGIRRPIPLNPDQARHIIPQLLNPGGAQPAPVQDGPVRGPPGIINQGRVVVGAHVYEFRAADVPNADGVPAVHNINHLLNVLNENAGNDVRVIVLPSRVGEGLPIHFNNNDLIFRHQSRPQPAPQQAAAAAAAGAAPAVAVGAEPLPQPDDVQIAPIPADERQARYARVQARLGHMMNARMRQNQEDQQYYYDQQPPNLMVVGTAHAHYRRHMNAQAHQQQREPSWNNYAVANAPPAIIQRNLDAPAPMFGVAVNEPQVQRNGDDSNDSTDREEIYDAEQQRQEALRDLVADPEAQPNFAPVEAQAVDLDMLEEEGEDDEVMEVGGVDGQFMMDGRAVME	not soluble
MTNERVMQLIREAYEKNLTTLDLSENQLTQLPSEITELKNLTTLNLSGNQLTQLPSEIGELKSLTSFDLSVNQLTQLPPEIGELKNLTILNVYRNQLIQLLPEITELKNLTTLDLSLNKLTQLPPEIGELEHHHHHH	not soluble
MTNHIEYKKNQIIASSEIDDLIFMSAPQEWSLEEQKEIQDKLVREAFHFHYNRNEKYRNYCISQHINENLHSIDEIPVFPTSIFKHMKFHTVSMGDIENWHTSSGTQGIKSCIARDRLSIERLLGSVNFGMKYVGNWFEHQMELVNLGPDRFSASNVWFKYVMSLVELLYPTVFTVNNDKIDFEETVNHLYRINNSNKDICLIGPPFFVSLLCQYMKENNIEFKGENRLHVITGGGWKSNENSSLNRQDFNQLIMDTFQLDNVNQIRDTFNQVELNTCFFEDEFQRKHVPPWVYARALDPETLKPVADGELGLLSYMDASSTAYPAFIVTDDIGIVREIREPDPYPGVTVEIVRRLNTRAQKGCALSMASFIQSTILEHHHHHH	not soluble
MTNPQFAGHPFGTTVTAETLRNTFAPLTQWEDKYRQLIMLGKQLPALPDELKAQAKEIAGCENRVWLGYTVAENGKMHFFGDSEGRIVRGLLAVLLTAVEGKTAAELQAQSPLALFDELGLRAQLSASRSQGLNALSEAIIAATKQV	not soluble
MTNSIHEMIRASFKCEDMVKCVLGLKSLDIEAYKALLMHGPQTAEKLGEILNRERSTAYRSLQNLIACGIVYRETRSIESGGYYYEYVAIEPQEMKRMVKKNVDEWYNQMNELIEKMDDKVNALVTRLEDDEAKQK	not soluble
MTPDQMRDASLLELFRLEAEAQTQVLNAGLMALERSPTQADQLEACMRAAHSLKGAARIVGLDAGVRVAHVMEDCLVEAQDGRLLLQSEHIDALLQGCDLLLRIGTPPAGDAGWAEGAGREEIDGLVLRLEGLVRSGLPLARAELPATTPGLPEAVPEAPPAASAAASDDNDEEPAGQAGGEQAEERRSRVLRVTAERLDRLLDISSKSLVEFQRIKPLADSLQRLRRLQSSASRALDVVRETVQETALDPQAQAMLGEARQLIGECQQMLVQHIADLDEFAWQGGQRAQVLYDAALASRMRPFADVLSGQARMVRDLGRSLGKQVRLLVEGESTQVDRDVLEKLEAPLTHLLRNAVDHGIEAPETRLAAGKPAEGRITIRARHHAGMLVLELSDDGGGIDLQRLRETVLNRQFATAETVAQLSEEELLAFLFLPGFSMREQVTEVSGRGVGLDAVQHMVRQLRGGVRMEQRQGQGALFHVEVPLTLSVVRSLVVEIGEEAYAFPLAHIERMCELEAEEIVQLEGRQHFWYEGRHVGLVSAAQLLQRPESSRTEGAIPVVVVRDRDAVYGVAVERFVGERTLVVMPLDPRLGKVRDVSAGALLDDGSPVLILDVEDLLHSVGKLLSSGRLERIDRSRRQAGGAQRKRILVVDDSLTVRELERKLLLGRGYDVAVAVDGMDGWNALRSEHFDLLITDIDMPRMDGIELVTLVRRDSRLQSLPVMVVSYKDREEDRRRGLDAGADYYLAKASFHDEALLDAVVVLIGEAQG	not soluble
MTPGFPLPKPDVLSRPFWDFAQRGVLSLQRCRHCGDVHFPAAPVCPACLSEQQEWVPASGRGTLFSWCEFHKGYWDSVASLLPYRVAVIKLNEGPLLISNLVDVADCAALRADAPVEVVFRPVSADINLPVFRLRHAY	not soluble
MTPYAFTDPRKSELYVVEGDSAGGSAKSGRDSMFQAILPLRGKIINVEKARIDRVLKNTEVQAIITALGTGIHDEFDIGKLRYHKIVLMADADVDGQHISTLLLTLLFRFMRPLIENGHVFLAQPPLYKLKWQRSDPEFAYSDRERDGLLEAGLKAGKKINKEDGIQRYKGLGEMDAKELWETTMDPSVRVLRQVTLDDAAAADELFSILMGEDVDARRSFITRNAKDVRFLDVKLAAALEHHHHHH	soluble
MTQANLSETLFKPRFKHPETSTLVRRFNHGAQPPVQSALDGKTIPHWYRMINRLMWIWRGIDPREILDVQARIVMSDAERTDDDLYDTVIGYRGGNWIYEWATQAMVWQQKACTEEDPQLSGRHWLHAATLYNIAAYPHLKGDDLAEQAQALSNRAYEEAAQRLPGTMRQMEFTVPGGAPITGFLHMPKGDGPFPTVLMCGGLDAMQTDYYSLYERYFAPRGIAMLTIDMPSVGFSSKWKLTQDSSLLHQHVLKALPNVPWVDHTRVAAFGFRFGANVAVRLAYLESPRLKAVACLGPVVHTLLSDFKCQQQVPEMYLDVLASRLGMHDASDEALRVELNRYSLKVQGLLGRRCPTPMLSGYWKNDPFSPEEDSRLITSSSADGKLLEIPFNPVYRNFDKGLQEITGWIEKRLC	not soluble
MTQKEISIIHPRPSSIVAALYTLRDLNVDVAILHGPPGCSFKHARLLEEDGIHVVTTGLDENGFVFGGHDKLVQVINKSIELFNPKILGVVGTCASMIIGEEMHEAVLEANPDIPVIEVEVHAGYHNNTKGVIFALESALDAGIIDHKEFERQEYLEHHHHHH	not soluble
MTQKIEQSQRQERVAAWNRRTECDLAAFQNSPKQTYQAEKARDRKLCANLEEAIRRSGLQDGMTVSFHHAFRGGDLTVNMVMDVIAKMGFKNLTLASSSLSDCHAPLVEHIRQGVVTRIYTSGLRGPLAEEISRGLLAEPVQIHSHGGRVHLVQSGELNIDVAFLGVPSCDEFGNANGYTGKACCGSLGYAMVDADNAKQVVMLTEELLPYPHNPASIEQDQVDLIVKVNRVGDAAKIGAGTTRMTTNPRELLIARSAADVIVNSGYFKEGFSMQTGTGGASLAVTRFLEDKMRSRDIRADFALGGITATMVDLHEKGLIRKLLDVQSFDSHAAQSLARNPNHIEISANQYANWGSKGASVDRLDVVVLSALEIDRQFNVNVLTGSDGVLRGASGGHCDTAIASALSIIVAPLVRGRIPTLVDNVLTCITPGSSVDILVTDHGIAVNPARPELAERLQEAGIKVVSIEWLRERARLLTGEPQPIEFTDRVVAVVRYRDGSVIDVVHQVKELEHHHHHH	soluble
